B1: wt ALKBH3: wild-type human Fe(II)/2OG-dependent dioxygenase ALKBH3 with N-terminal His-tag, expressed in E. coli (protein, UniProt Q96Q83 1-286, looked up)
Alpha-ketoglutarate-dependent …: MEEKRRRARVQGAWAAPVKSQAIAQPATTAKSHLHQKPGQTWKNKEHHLSDREFVFKEPQQVVRRAPEPRVIDREGVYEISLSPTGVSRVCLYPGFVDVKEADWILEQLCQDVPWKQRTGIREDITYQQPRLTAWYGELPYTYSRITMEPNPHWHPVLRTLKNRIEENTGHTFNSLLCNLYRNEKDSVDWHSDDEPSLGRCPIIASLSFGATRTFEMRKKPPPEENGDYTYVERVKIPLDHGTLLIMEGATQADWQHRVPKEYHSREPRVNLTFRTVYPDPRGAPW
modifications: N-terminal His-tag
notes: wild-type human Fe(II)/2OG-dependent dioxygenase ALKBH3 with N-terminal His-tag, expressed in E. coli
B2: Y143F ALKBH3: ALKBH3 mutant, Tyr143 replaced with Phe (protein, UniProt Q96Q83 1-286, looked up, variant Y143F)
Alpha-ketoglutarate-dependent …: MEEKRRRARVQGAWAAPVKSQAIAQPATTAKSHLHQKPGQTWKNKEHHLSDREFVFKEPQQVVRRAPEPRVIDREGVYEISLSPTGVSRVCLYPGFVDVKEADWILEQLCQDVPWKQRTGIREDITYQQPRLTAWYGELPYTFSRITMEPNPHWHPVLRTLKNRIEENTGHTFNSLLCNLYRNEKDSVDWHSDDEPSLGRCPIIASLSFGATRTFEMRKKPPPEENGDYTYVERVKIPLDHGTLLIMEGATQADWQHRVPKEYHSREPRVNLTFRTVYPDPRGAPW

Tested on: m3C_FRET substrate (m3C-containing DNA)
Assay: Stopped-flow FRET pre-steady-state kinetics of m3C DNA demethylation
Assay type: biochemical
Details: for k1 × 10^−6 / k2 / k3 / kr (irreversible step of substrate hydroxylation) / k−1 / k−2 / k−3 / Kd: global fitting of SF data to Scheme 1; for Kd: read-out: Kd^Product (equilibrium dissociation constant of the enzyme–product complex); for Ka = K1 + K1 × K2 + K1 × K2 × K3: overall affinity for damaged DNA, Ki = ki/k−i
Description: In previous research, we employed a stopped-flow (SF) method to detect conformational changes in the dioxygenases AlkB and ALKBH2, as well as their substrates, throughout the catalytic cycle. The SF technique provides excellent opportunities for studying the conformational dynamics of protein–nucleic acid complexes under pre-steady-state conditions within the millisecond time range. Conformational transitions are typically detected by measuring the fluorescent signal from the tryptophan residues of the enzyme or fluorescent labels incorporated into the DNA substrate sequence. […] It should be noted that another common approach to detecting conformational dynamics based on measurement of the intrinsic Trp fluorescence of ALKBH3 was unsuccessful due to a low signal-to-noise ratio. The time-dependent FRET signal profiles following rapid (1 ms) mixing of equimolar amounts of enzyme and the m3C_FRET substrate in the presence of Fe(II) and 2OG ligands were obtained under near single-turnover conditions (Figure 3). […] In the case of the wt protein, the initial stage of the enzyme–substrate interaction was accompanied by a slight increase in the FRET signal between 20 ms and 2 s. Subsequently, from 10 s to 250 s, a significant quenching of fluorescence occurs, followed by stabilization at a constant level. The kinetic curve obtained for the Y143F mutant was similar to wt ALKBH3, except that the phase of decrease in the signal was shifted towards longer time scales (20–600 s).
For wt and Y143F ALKBH3, a series of SF traces were recorded across a range of m3C substrate concentrations from 0.5 to 4.0 µM (Figure 4). […] Additionally, a slight increase in signal, absent in the native protein, is discernible in the initial segment (1–5 ms) of the curves for Y143F ALKBH3, most likely indicative of the primary enzyme–substrate binding.
Table 1 summarizes the values of the rate constants describing the forward and reverse reactions of the mechanism, as well as the equilibrium dissociation constant of the enzyme–product complex. […] Subsequent isomerization of the enzyme–substrate complex is characterized by two equilibrium steps, which occur at half the rate in wt ALKBH3, yet with greater efficiency than for the Y143F protein. To assess the overall affinity of ALKBH3’s active site for damaged DNA, the equilibrium constant Ka = K1 + K1 × K2 + K1 × K2 × K3, where Ki = ki/k−i, was determined. […] In contrast, the rate of the step of irreversible hydroxylation of the methyl group by the native protein (kr^wt = 0.023 s^−1) is nearly twice as fast as that of the Y143F mutant (kr^Y143F = 0.013 s^−1). Furthermore, the equilibrium dissociation constant of the enzyme–product complex (Kd^Product) is almost an order of magnitude higher for wt ALKBH3. […] The substitution of Tyr143 with Phe leads to a reduction in the rate and efficiency of demethylation of the m3C substrate, likely due to perturbations in the structure of the catalytically competent complex and strong product binding, which complicates the enzyme’s transition to the next turnover.
Figure 3 Time courses of the FRET signal generated by the FAM/BHQ1 pair under interactions of wt, Y143F, Y143A, L177A, and H191A ALKBH3 with m3C-containing DNA. The fluorescence traces represent changes in the FRET signal after rapid mixing of 1.5 µM m3C_FRET substrate with 1.5 µM protein in the presence of 40 µM Fe(II) and 1 mM 2OG. Each curve was collected in a split mode within four time intervals (up to 0.1, 1, 50, and 500 or 1000 s) in 4–5 replicates.
Figure 4 Pre-steady-state kinetics of m3C-containing DNA demethylation by wt (A) and Y143F (B) ALKBH3 proteins.

Molecule	k1 (formation of the primary enzyme–substrate complex) [M⁻¹ s⁻¹]	k1 × 10^−6 [M^−1 s^−1]	k2 [s⁻¹]	k3 [s⁻¹]	kr (irreversible step of substrate hydroxylation) [s⁻¹]	k−1 [s⁻¹]	k−2 [s⁻¹]	k−3 [s⁻¹]	kr (irreversible step of substrate hydroxylation) (listed as wt) [s⁻¹]	Kd [nM]	Ka = K1 + K1 × K2 + K1 × K2 × K3	kr (irreversible step of substrate hydroxylation) (listed as Y143F) [s⁻¹]
B1	9.4e+07	19 ± 3	2.9 ± 0.9	0.57 ± 0.12	0.023 ± 0.003	64 ± 5	2.8 ± 0.5	0.13 ± 0.01	0.023	720	(1.9 ± 0.2) × 10^6 M^−1	–
B2	1.9e+07	94 ± 3	6.1 ± 1.4	1.4 ± 0.1	0.013 ± 0.001	270 ± 26	7.7 ± 0.24	0.48 ± 0.03	–	83	(1.4 ± 0.1) × 10^6 M^−1	0.013

From paper PMC10816986, “The Role of Key Amino Acids of the Human Fe(II)/2OG-Dependent Dioxygenase ALKBH3 in Structural Dynamics and Repair Activity toward Methylated DNA” (International Journal of Molecular Sciences, 2024)
